T1: biotinylated hOX40L (R&D Systems, biotinylated in house) (human, UniProt P23510 51-183, biotinylated with Sulfo-NHS-LC-Biotin, sites not stated)
T1 construct: same bought protein as m10, biotinylated; also called biotinylated OX40L
T1 sequence: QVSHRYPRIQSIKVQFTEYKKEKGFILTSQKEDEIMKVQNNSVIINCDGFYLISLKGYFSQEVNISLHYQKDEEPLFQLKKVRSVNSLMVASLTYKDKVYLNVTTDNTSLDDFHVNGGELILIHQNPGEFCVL

T2: recombinant human OX40L (extracellular domain, R&D Systems) (human, UniProt P23510 51-183)
T2 sequence: T1 sequence

B1: OX40L026 (VHH, not shown: small tags and cut ends)
VHH: EVQLVESGGGLVQPGGSLRLSCAASGRTFSSIYAKGWFRQAPGKEREFVAAISRSGRSTSYADSVKGRFTISRDNAKNTVYLQMNSLRPEDTAVYYCAAVGGATTVTASEWDYWGQGTLVTVSS
B2: OX40L028 (VHH, not shown: small tags and cut ends)
VHH: B1 VHH with E1D, Q116L
B3: OX40L027 (VHH, not shown: small tags and cut ends)
VHH: B1 VHH with A76S
B4: OX40L039 (VHH, not shown: small tags and cut ends)
VHH: B1 VHH with E1D, A76S
B5: OX40L030 (VHH, not shown: small tags and cut ends)
VHH: DVQLVESGGGLVQAGGSLRLSCAASRSIGRLDRMGWYRHRTGEPRELVATITGGSSINYGDFVKGRFTISIDNAKNTVYLQMNNLKPEDTAVYYCNFNKYVTSRDTWGQGTQVTVSS
B6: OX40L040 (VHH, not shown: small tags and cut ends)
VHH: B5 VHH with A14P, I71R, A74S, N84S, K86R, Q112L
B7: OX40L055 (VHH, not shown: small tags and cut ends)
VHH: B5 VHH with A14P, I71R, A74S, K86R, Q112L
B8: OX40L053 (VHH, not shown: small tags and cut ends)
VHH: B5 VHH with A14P, A74S, N84S, K86R, Q112L
B9: OX40L054 (VHH, not shown: small tags and cut ends)
VHH: B5 VHH with A14P, I71R, N84S, K86R, Q112L

Substitutions are numbered along the chain they refer to.

For one experiment, the target named is T1, biotinylated hOX40L (R&D Systems, …). As to the kind of experiment: hOX40L/hOX40 AlphaScreen, native sample. The method, then:
(§1) Next, streptavidin donor beads were added and incubated for an additional 1 hour. Fluorescence was measured by reading plates on the EnVision Multilabel Plate Reader using an excitation wavelength of 680 nm and an emission wavelength of 520 nm.
(§2) In the TSA assay, Nanobodies were diluted to a concentration of 0.2 mg/ml and melting temperature (Tm) was determined at different pH by stepwise increase in temperature in presence of Sypro Orange, a dye that binds to […] residues that become exposed upon unfolding of the protein, using the Lightcycler (Roche) for detection. […] In SEC analysis, the Nanobodies were analyzed on a Phenomenex matrix to allow detection of multimers, aggregates or ‘stickyness’.
B1 returned an IC50 of 50 pM.
The same measure, in the same setting: to B2 belongs 70 pM.
As for B3, inhibition was half-maximal at 70 pM (IC50).
Same read-out and setting: to B4 belongs 50 pM.

Another experiment concerns the target T2, recombinant human OX40L (extracellular …). As to the kind of experiment: cell-based or functional assay.
For B5, the “IC50, T cell assay with rec. hOX40L” value is 11000 pM.
On the same count and under the same terms, to B6 belongs 9000 pM.

A further experiment addresses T1, biotinylated hOX40L (R&D Systems, …). Put plainly: hOX40L/hOX40 AlphaScreen, assay 3, heated at Tm+10 C. On the procedure: as §1, §2
In general terms: Alpha assays give light when donor and acceptor beads are brought close together.
B5 gave an IC50 of 143 pM.
Still for that read-out and setting: to B7 belongs 106 pM.
In turn, B8 showed an IC50 of 126 pM.
On the same count and under the same terms, to B6 belongs 82 pM.
On the same count and under the same terms, to B9 belongs 94 pM.

A further experiment has as its target T2, recombinant human OX40L (extracellular …). Put plainly: cell-based or functional assay. This is another data set of the same source.
Take B1: the “IC50, T cell assay with rec. hOX40L” value amounted to 2460 pM.
The same measure, in the same setting: to B2 belongs 2300 pM.
On to B3, for which the “IC50, T cell assay with rec. hOX40L” value was 1430 pM.
Regarding B4, the “IC50, T cell assay with rec. hOX40L” value came out at 1600 pM.

In another experiment the target is T1, biotinylated hOX40L (R&D Systems, …). As to the kind of experiment: hOX40L/hOX40 AlphaScreen, assay 1, native. The method, then:
Next, streptavidin donor beads were added and incubated for an additional 1 hour. Fluorescence was measured by reading plates on the EnVision Multilabel Plate Reader using an excitation wavelength of 680 nm and an emission wavelength of 520 nm. […]
The molecule B5 registered an IC50 of 76 pM.
B6 registered an IC50 of 46 pM.

Another experiment has the same target. As to the kind of experiment: hOX40L/hOX40 AlphaScreen, sample heated 1 min at Tm+10 C. The method, then: as §1, §2
B1 yielded an IC50 of 60 pM.
The same measure, in the same setting: to B2 belongs 70 pM.
In the case of B3, 70 pM corresponded to half-maximal inhibition (IC50).
Molecule B4 had an IC50 of 50 pM.

Another experiment shares this target. Put plainly: hOX40L/hOX40 AlphaScreen, assay 3, native. The method, then: as §1, §2
Take B5: the IC50 was found to be 143 pM.
Same read-out and setting: to B7 belongs 91 pM; to B8, 118 pM.
The same measure, in the same setting: to B6 belongs 102 pM; to B9, 79 pM.

For a further experiment the target is unchanged. Put plainly: hOX40L/hOX40 AlphaScreen, assay 2, heated at Tm+10 C. The method, then: as §1, §2
B6 registered a half-inhibitory concentration (IC50) of 84 pM.

For the next experiment the target is unchanged. Put plainly: hOX40L/hOX40 AlphaScreen, assay 2, native. On the procedure: as §1, §2
The molecule B6 displayed an IC50 of 92 pM.

A word on the IC50: it is the concentration needed to halve the response being measured. A low value points to higher potency.
